The source of these data is article PMC5024103, “Catalytic Thr or Ser Residue Modulates Structural Switches in 2-Cys Peroxiredoxin by Distinct Mechanisms” (Scientific Reports, 2016).

Data set [1] deals with Tsa1^T44A (S. cerevisiae) (UniProt P34760). Kind of data set: SEC; analytical HPLC, Phenomenex BioSep-SEC-S3000, 50 uM enzyme, 100 mM Tris-HCl pH 7.4, 50 mM NaCl, 1 mL/min; samples reduced with 5 mM TCEP for 30 min at 25 C; dimers to decamer.
The target in data set [2] is Tsa1^T44S (S. cerevisiae) (UniProt P34760). The data set is described as follows: SEC; analytical HPLC, Phenomenex BioSep-SEC-S3000, 50 uM enzyme, 100 mM Tris-HCl pH 7.4, 50 mM NaCl, 1 mL/min; samples reduced with TCEP and then oxidised (disulfide) with 1.2 molar equivalents of H2O2 for 30 min at 25 C; dimers to decamer. A general note: In gel filtration, larger molecules generally elute earlier.

Data set [3] has the same target. Kind of data set: SEC; analytical HPLC, Phenomenex BioSep-SEC-S3000, 50 uM enzyme, 100 mM Tris-HCl pH 7.4, 50 mM NaCl, 1 mL/min; samples reduced with 5 mM TCEP for 30 min at 25 C; dimers to decamer.
Data set [4] addresses Tsa1^WT (typical 2-Cys peroxiredoxin Tsa1 from S. cerevisiae) (S. cerevisiae) (UniProt P34760). The data set is described as above.
Substrate in data set [5]: CC(C)(OO)c1ccccc1
Kind of data set: Trx system coupled assay, NADPH oxidation. Format: biochemical, Saccharomyces cerevisiae. Conditions: Trx1 2 μM, TrxR1 0.3 μM, NADPH 150 μM, HEPES pH 7.4, 30 °C. An excerpt: Trx system coupled assay, NADPH oxidation on Tsa1 (Tsa1^WT) | In the case of cumene hydroperoxide (CHP) reduction, Tsa1^WT and Tsa1^T44S also presented similar enzymatic parameters

Data set [6] deals with the molecule itself. Kind of data set: SEC; analytical HPLC, Phenomenex BioSep-SEC-S3000, 50 uM enzyme, 100 mM Tris-HCl pH 7.4, 50 mM NaCl, 1 mL/min; samples reduced with TCEP and then oxidised (disulfide) with 1.2 molar equivalents of H2O2 for 30 min at 25 C; dimers to decamer.
Data set [7] concerns the molecule itself. The data set is described as follows: SEC; analytical HPLC, Phenomenex BioSep-SEC-S3000, 50 uM enzyme, 100 mM Tris-HCl pH 7.4, 50 mM NaCl, 1 mL/min; samples reduced with 5 mM TCEP for 30 min at 25 C; dimers to decamer.
Substrate in data set [8]: CC(C)(OO)c1ccccc1
The data set is described as follows: Trx system coupled assay, NADPH oxidation. It counts as biochemical, Saccharomyces cerevisiae. Conditions: Trx1 2 μM, TrxR1 0.3 μM, NADPH 150 μM, HEPES pH 7.4, 30 °C. The source holds these as a separate data set.

As for “Tsa1^T44A (from UniProt P34760 1-196) (enzyme)”, in data set [1], the stoichiometry N (commonly the number of molecules, sites or subunits per partner or assembly) came to 10. Regarding “Tsa1^T44S (from UniProt P34760 1-196) (enzyme)”, the stoichiometry N in data set [2] and in data set [3] was 10 throughout. In the case of “Tsa1^WT (typical 2-Cys peroxiredoxin Tsa1 from S. cerevisiae) (from UniProt P34760 1-196) (enzyme)”, in data set [4], the stoichiometry N turned out to be 10.

B1: Tsa1 (Tsa1^WT) (Saccharomyces cerevisiae S288C) (protein)
chain: MVAQVQKQAPTFKKTAVVDGVFDEVSLDKYKGKYVVLAFIPLAFTFVCPTEIIAFSEAAKKFEEQGAQVLFASTDSEYSLLAWTNIPRKEGGLGPINIPLLADTNHSLSRDYGVLIEEEGVALRGLFIIDPKGVIRHITINDLPVGRNVDEALRLVEAFQWTDKNGTVLPCNWTPGAATIKPTVEDSKEYFEAANK
notes: pET15b/Tsa1, His-tagged (HisTrap IMAC); homodimer ~48 kDa, decamer ~240 kDa
Regarding B1, in data set [5], the Michaelis-Menten constant (Km) – broadly, the substrate concentration at which the rate is half of its maximum – was 8.80 ± 0.05 µM; the kcat (usually the maximal rate divided by the concentration of active sites) worked out at 0.7 ± 0.1 s⁻¹; the kcat/Km (in general, the turnover number divided by the Michaelis constant) worked out at 82000 ± 11000 M⁻¹ s⁻¹.

B2: Tsa1^T44V (enzyme)
chain: MVAQVQKQAPTFKKTAVVDGVFDEVSLDKYKGKYVVLAFIPLAFVFVCPTEIIAFSEAAKKFEEQGAQVLFASTDSEYSLLAWTNIPRKEGGLGPINIPLLADTNHSLSRDYGVLIEEEGVALRGLFIIDPKGVIRHITINDLPVGRNVDEALRLVEAFQWTDKNGTVLPCNWTPGAATIKPTVEDSKEYFEAANK
Take B2: in data set [6], the “stoichiometry N” value worked out at 2.

B3: Tsa1^Y77A (enzyme)
chain: MVAQVQKQAPTFKKTAVVDGVFDEVSLDKYKGKYVVLAFIPLAFTFVCPTEIIAFSEAAKKFEEQGAQVLFASTDSEASLLAWTNIPRKEGGLGPINIPLLADTNHSLSRDYGVLIEEEGVALRGLFIIDPKGVIRHITINDLPVGRNVDEALRLVEAFQWTDKNGTVLPCNWTPGAATIKPTVEDSKEYFEAANK
As to B3, the “stoichiometry N” value in data set [7] and in data set [6] was 2 throughout.

B4: Tsa1 (Tsa1^WT) (Saccharomyces cerevisiae S288C; T45A) (protein)
chain: MVAQVQKQAPTFKKTAVVDGVFDEVSLDKYKGKYVVLAFIPLAFAFVCPTEIIAFSEAAKKFEEQGAQVLFASTDSEYSLLAWTNIPRKEGGLGPINIPLLADTNHSLSRDYGVLIEEEGVALRGLFIIDPKGVIRHITINDLPVGRNVDEALRLVEAFQWTDKNGTVLPCNWTPGAATIKPTVEDSKEYFEAANK
notes: as for B1
On to B4, for which the Km in data set [8] is 300 µM.

B5: Tsa1 (Tsa1^WT) (Saccharomyces cerevisiae S288C; T45S) (protein)
chain: MVAQVQKQAPTFKKTAVVDGVFDEVSLDKYKGKYVVLAFIPLAFSFVCPTEIIAFSEAAKKFEEQGAQVLFASTDSEYSLLAWTNIPRKEGGLGPINIPLLADTNHSLSRDYGVLIEEEGVALRGLFIIDPKGVIRHITINDLPVGRNVDEALRLVEAFQWTDKNGTVLPCNWTPGAATIKPTVEDSKEYFEAANK
notes: as for B1
As for B5, in data set [5], the Michaelis-Menten constant (Km) was found to be 9.9 ± 1.2 µM, the kcat worked out at 0.7 ± 0.1 s⁻¹ and the specificity constant (kcat/Km) turned out to be 75000 ± 9000 M⁻¹ s⁻¹.

B6: Tsa1^S78D (enzyme)
chain: MVAQVQKQAPTFKKTAVVDGVFDEVSLDKYKGKYVVLAFIPLAFTFVCPTEIIAFSEAAKKFEEQGAQVLFASTDSEYDLLAWTNIPRKEGGLGPINIPLLADTNHSLSRDYGVLIEEEGVALRGLFIIDPKGVIRHITINDLPVGRNVDEALRLVEAFQWTDKNGTVLPCNWTPGAATIKPTVEDSKEYFEAANK
In the case of B6, the “stoichiometry N” value in data set [7] and in data set [6] was 2 throughout.

B7: Tsa2^WT (typical 2-Cys peroxiredoxin Tsa2 from S. cerevisiae) (enzyme)
chain: MVAEVQKQAPPFKKTAVVDGIFEEISLEKYKGKYVVLAFVPLAFSFVCPTEIVAFSDAAKKFEDQGAQVLFASTDSEYSLLAWTNLPRKDGGLGPVKVPLLADKNHSLSRDYGVLIEKEGIALRGLFIIDPKGIIRHITINDLSVGRNVNEALRLVEGFQWTDKNGTVLPCNWTPGAATIKPDVKDSKEYFKNANN
notes: Tsa2, typical 2-Cys peroxiredoxin of Saccharomyces cerevisiae (86% identity with Tsa1; Ser45 in place of Thr44 of Tsa1); Decamer in both redox states by SEC; source: E. coli BL21 (DE3), pPROEx/tsa2, purified (IMAC on HisTrap, PD10 desalting); not shown: His tag (from the vector pPROEx); copies: 10
For the molecule B7, the “stoichiometry N” value in data set [7] and in data set [6] was 10 in each case.
